In PMC3605678 (The Journal of Biological Chemistry, 2013):

What was measured:
[1] = molecular target: ERK5 kinase domain, ERK5-(1–431) (Homo sapiens, UniProt Q13164); test: Fluorescence polarization; settings: FP-based binding affinity measurements
[2] = molecular target: ERK2 (Homo sapiens, UniProt P28482); test: FP-based binding affinity measurements with ERK2, direct titration
Sequence of ERK2 (P28482 whole entry): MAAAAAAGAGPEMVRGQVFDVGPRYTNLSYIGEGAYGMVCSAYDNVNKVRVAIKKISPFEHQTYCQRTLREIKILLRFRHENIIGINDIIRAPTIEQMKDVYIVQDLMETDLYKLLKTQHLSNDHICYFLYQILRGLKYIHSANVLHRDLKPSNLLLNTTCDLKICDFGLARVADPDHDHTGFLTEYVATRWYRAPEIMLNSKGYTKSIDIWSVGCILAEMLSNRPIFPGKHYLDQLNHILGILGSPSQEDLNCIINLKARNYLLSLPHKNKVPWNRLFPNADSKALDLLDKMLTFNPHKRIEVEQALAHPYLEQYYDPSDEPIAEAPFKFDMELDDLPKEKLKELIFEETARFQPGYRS

Sequence of ERK5 kinase domain, ERK5-(1–431) (Q13164 1-431): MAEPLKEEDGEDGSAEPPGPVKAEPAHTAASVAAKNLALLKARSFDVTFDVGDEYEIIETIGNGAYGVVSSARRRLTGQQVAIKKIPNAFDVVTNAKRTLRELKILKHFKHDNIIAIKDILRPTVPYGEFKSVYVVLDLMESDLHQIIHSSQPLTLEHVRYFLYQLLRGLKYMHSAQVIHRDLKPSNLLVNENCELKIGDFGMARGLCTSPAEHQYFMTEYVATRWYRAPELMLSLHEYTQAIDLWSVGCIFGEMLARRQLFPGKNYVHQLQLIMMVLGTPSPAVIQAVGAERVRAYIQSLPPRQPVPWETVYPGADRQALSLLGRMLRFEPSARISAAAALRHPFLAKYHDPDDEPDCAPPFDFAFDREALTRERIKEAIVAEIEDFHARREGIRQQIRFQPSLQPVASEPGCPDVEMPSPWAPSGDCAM

Binding to ERK5 (result in words) [1]: submicromolar affinity
Binding to ERK2 (result in words) [2]: did not bind
B1: PB1-D: MKK5 construct (16–130) comprised of the PB1 domain and the linear D-motif (protein, UniProt Q13163 16-130, looked up, fragment)
chain: VLVIRIKIPNSGAVDWTVHSGPQLLFRDVLDVIGQVLPEATTTAFEYEDEDGDRITVRSDEEMKAMLSYYYSTVMEQQVNGQLIEPLQIFPRACKPPGERNIHGLKVNTRAGPSQ
modifications: PB1 domain and D-motif
